Results: patent US20110311508A1 (NORTHWESTERN UNIVERSITY, published 2011)

Biological target: the molecule itself
Assay: self-association (trimerization); EGS crosslinking of K562 cell extracts, SDS-PAGE, western blot
From the text: FIG. 9: The HSF1 K80Q mutant is not defective in trimerization ability. A prerequisite of stable HSF binding to DNA is the formation of trimeric HSF complexes. Therefore, it is conceivable that mutations of K80 disrupted proper HSF1 folding or the stress-induced formation of HSF trimers. To explore this possibility, e a cross-linking assay was used to determine the formation of higher-order complexes upon heat shock. K562 cells were transfected with WT Myc-HSF1, Myc-HSF1 K80Q or Myc-HSF1 M391K, L395P, a previously characterized HSF1 mutant that is constitutively trimeric (14). Cells were treated with or without heat shock (HS, 42° C., 20 minutes) followed by treatment with the EGS crosslinking agent. Protein extracts were separated by SDS-PAGE and western blot analysis was performed with the indicated antibodies. The arrow indicates monomeric HSF1 and the arrowhead marks trimeric HSF1.

B1: Myc-HSF1 K80Q (other)
chain: MDLPVGPGAAGPSNVPAFLTKLWTLVSDPDTDALICWSPSGNSFHVFDQGQFAKEVLPKYFKHNNMASFVRQLNMYGFRQVVHIEQGGLVKPERDDTEFQHPCFLRGQEQLLENIKRKVTSVSTLKSEDIKIRQDSVTKLLTDVQLMKGKQECMDSKLLAMKHENEALWREVASLRQKHAQQQKVVNKLIQFLISLVQSNRILGVKRKIPLMLNDSGSAHSMPKYSRQFSLEHVHGSGPYSAPSPAYSSSSLYAPDAVASSGPIISDITELAPASPMASPGGSIDERPLSSSPLVRVKEEPPSPPQSPRVEEASPGRPSSVDTLLSPTALIDSILRESEPAPASVTALTDARGHTDTEGRPPSPPPTSTPEKCLSVACLDKNELSDHLDAMDSNLDNLQTMLSSHGFSVDTSALLDLFSPSVTVPDMSLPDLDSSLASIQELLSPQEPPRPPEAENSSPDSGKQLVHYTAQPLFLLDPGSVDTGSNDLPVLFELGEGSYFSEGDGFAEDPTISLLTGSEPPKAKDPTVS
notes: also called K80Q mutant; K80Q HSF1; not shown: Myc tag
binding result: binds
